Laboratory results: patent publication US20090325867A1, “RECEPTOR-SPECIFIC TUMOUR NECROSIS FACTOR-RELATED APOPTOSIS-INDUCING LIGAND (TRAIL) VARIANTS” (MEDICAL RESEARCH COUNCIL, priority 2005, published 2009)

Biological target: T1, TRAIL-R1 (DR4) (Homo sapiens, UniProt O00220)
T1 construct: Ramos and Jurkat cells, which signal predominantly through TRAIL-R1 and TRAIL-R2, respectively; endogenous in cells; host or cells: Ramos cells (Jurkat cells as TRAIL-R2 comparison)
Test: TRAIL-R1 selective apoptotic signalling (Ramos versus Jurkat cells)
Type: cell-based
Conditions: from apoptosis in Ramos (TRAIL-R1) and Jurkat (TRAIL-R2) cells
Text: Another test involves the assay of the effect in R1- (DR4-) only cells. This is the preferred test for DR4 selectivity as discussed herein. Preferably the ligand is applied to an R1-only signalling cell. Preferably the cell is a Ramos cell. Preferably the read-out is functional activity, preferably death-inducing activity (apoptosis). This is crucial to the test—mere binding is not as robust an indicator as functional induction of death. Thus, preferably a DR4 selective ligand according to the present invention induces death in a DR4 only signalling cell, such as a Ramos cell.
Ramos, an Epstein-Barr virus-negative Burkitt's lymphoma cell line, and Jurkat T cells (clone E6-1) were cultured as described (MacFarlane et al (2005 Cell Death and Differentiation vol 12 pages 773-782)). Blood samples were obtained from CLL patients, with patient consent and local ethical committee approval and CLL cells purified as described (MacFarlane et al (2002 Oncogene 21, 6809-6818). Cells were incubated for 16 h with depsipeptide (10 nM), provided by Dr. E. Sausville (NCI, USA). Cells were then cultured for a further 6 h with either HGSETR1 or HGS-ETR2, agonistic mAbs to TRAIL-R1 or -R2, respectively (Human Genome Sciences, Rockville, Md.), His-TRAIL-LE (a recombinant TRAIL with low endotoxin—Alexis Corporation, Nottingham, UK), His-TRAIL, a similar form of human recombinant TRAIL (MacFarlane et al (1997 J Biol Chem 272, 25417-25420)) but not further purified to reduce endotoxin levels or a mutant form of His-TRAIL as described (MacFarlane et al., 2005 ibid.). Cell lines were also pre-incubated for 30 min with a TRAIL-R1 blocking Ab and a TRAIL-R2 neutralizing Ab from Alexis and R&D systems, respectively, prior to exposure to TRAIL. Freshly isolated cells from patients with MCL were isolated, purified and incubated with different forms of TRAIL as described above for CLL cells. Samples were either analyzed immediately for apoptosis or stored at −80° C. for subsequent Western blotting. Other methods and reagents were as described (Inoue (2004 Cell Death Differ 11 Suppl 2, S193-206); MacFarlane et al., 2005 ibid).
Apoptosis was quantified by phosphatidylserine (PS) externalization in the presence of propidium iodide as described (MacFarlane et al., 2002 ibid.). Samples for Western blot analysis were prepared and caspase processing detected as described (Inoue et al., 2004 ibid.; MacFarlane et al., 2005 ibid.).
Referring to FIG. 4: Ramos cells (A) and Jurkat cells (B) were cultured with increasing concentrations of Arg191Leu or Asn199Val single mutants of His-TRAIL ([…]) or His-TRAIL (500 ng/ml), ETR1 or ETR2 (1000 ng/ml) for 4 h. Apoptosis was quantified by measuring the % PS+ cells and results shown in FIG. 4 are the Mean±SEM of three independent experiments. Thus the biological importance TRAIL residues R191 and N199 in TRAIL-R1 selectivity is shown.

B1: TRAIL.R1-5: 6His TRAIL 95-281 with 193Ser, 199Val, 201Arg, 213Trp and 215Asp (protein)
chain: TSEETISTVQEKQQNISPLVRERGPQRVAAHITGTRGRSNTLSSPNSKNEKALGRKINSWESSRSGHSFLSNLHLRNGELVIHEKGFYYIYSQTYFRFSEEIKEVTRNDKQMVQYIYKWTDYPDPILLMKSARNSCWSKDAEYGLYSIYQGGIFELKENDRIFVSVTNEHLIDMDHEASFFGAFLVG
modifications: biotin (site not stated) in the DISC analysis only; not biotinylated in the apoptosis assays
notes: 6His TRAIL 95-281 with 193Ser, 199Val, 201Arg, 213Trp and 215Asp
  receptor selectivity of apoptotic activity (in words): R1 selective apoptotic activity
